Measurements as given in publication PMC7849366 (Genes & Development, 2021).

Molecular target: full-length recombinant MYC-KEAP1 (human, UniProt Q14145 1-624)
Assay: pull-down

Sequence of full-length recombinant MYC-KEAP1 (Q14145 whole entry): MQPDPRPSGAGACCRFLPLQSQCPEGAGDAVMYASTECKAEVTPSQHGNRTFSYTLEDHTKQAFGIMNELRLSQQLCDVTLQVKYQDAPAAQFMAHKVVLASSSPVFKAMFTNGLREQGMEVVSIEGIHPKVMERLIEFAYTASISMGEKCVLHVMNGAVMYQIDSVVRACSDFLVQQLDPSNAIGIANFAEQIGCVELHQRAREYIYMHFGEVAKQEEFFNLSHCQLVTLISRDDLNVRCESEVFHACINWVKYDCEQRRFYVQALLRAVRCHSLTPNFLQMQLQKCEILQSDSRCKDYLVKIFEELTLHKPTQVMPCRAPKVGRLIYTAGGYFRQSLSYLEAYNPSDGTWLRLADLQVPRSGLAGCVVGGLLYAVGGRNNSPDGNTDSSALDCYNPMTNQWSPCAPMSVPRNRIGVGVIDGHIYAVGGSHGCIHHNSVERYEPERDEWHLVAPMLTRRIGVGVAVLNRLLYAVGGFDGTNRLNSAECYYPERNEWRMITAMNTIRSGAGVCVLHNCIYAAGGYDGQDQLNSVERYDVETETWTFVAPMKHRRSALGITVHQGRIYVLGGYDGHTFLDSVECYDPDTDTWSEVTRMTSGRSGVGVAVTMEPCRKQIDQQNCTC

B1: full-length recombinant GST-ATDC (natural protein)
chain: MEAADASRSNGSSPEARDARSPSGPSGSLENGTKADGKDAKTTNGHGGEAAEGKSLGSALKPGEGRSALFAGNEWRRPIIQFVESGDDKNSNYFSMDSMEGKRSPYAGLQLGAAKKPPVTFAEKGELRKSIFSESRKPTVSIMEPGETRRNSYPRADTGLFSRSKSGSEEVLCDSCIGNKQKAVKSCLVCQASFCELHLKPHLEGAAFRDHQLLEPIRDFEARKCPVHGKTMELFCQTDQTCICYLCMFQEHKNHSTVTVEEAKAEKETELSLQKEQLQLKIIEIEDEAEKWQKEKDRIKSFTTNEKAILEQNFRDLVRDLEKQKEEVRAALEQREQDAVDQVKVIMDALDERAKVLHEDKQTREQLHSISDSVLFLQEFGALMSNYSLPPPLPTYHVLLEGEGLGQSLGNFKDDLLNVCMRHVEKMCKADLSRNFIERNHMENGGDHRYVNNYTNSFGGEWSAPDTMKRYSMYLTPKGGVRTSYQPSSPGRFTKETTQKNFNNLYGTKGNYTSRVWEYSSSIQNSDNDLPVVQGSSSFSLKGYPSLMRSQSPKAQPQTWKSGKQTMLSHYRPFYVNKGNGIGSNEAP
Kd: 2.87 nM
